Read-outs that look alike come from different tables or passages of the source.
How the values were obtained:
[1] = biological target: NP WT (Influenza A virus A/TW/12/2001 (H1N1)) (UniProt Q07FI1); experiment: SPR
[2] = biological target: NP WT (Influenza A virus A/TW/12/2001 (H1N1)) (UniProt Q07FI1); experiment: SPR; remark: listed apart in the source

Chain of NP WT (Influenza A virus A/TW/12/2001 (H1N1)) (Q07FI1 whole entry): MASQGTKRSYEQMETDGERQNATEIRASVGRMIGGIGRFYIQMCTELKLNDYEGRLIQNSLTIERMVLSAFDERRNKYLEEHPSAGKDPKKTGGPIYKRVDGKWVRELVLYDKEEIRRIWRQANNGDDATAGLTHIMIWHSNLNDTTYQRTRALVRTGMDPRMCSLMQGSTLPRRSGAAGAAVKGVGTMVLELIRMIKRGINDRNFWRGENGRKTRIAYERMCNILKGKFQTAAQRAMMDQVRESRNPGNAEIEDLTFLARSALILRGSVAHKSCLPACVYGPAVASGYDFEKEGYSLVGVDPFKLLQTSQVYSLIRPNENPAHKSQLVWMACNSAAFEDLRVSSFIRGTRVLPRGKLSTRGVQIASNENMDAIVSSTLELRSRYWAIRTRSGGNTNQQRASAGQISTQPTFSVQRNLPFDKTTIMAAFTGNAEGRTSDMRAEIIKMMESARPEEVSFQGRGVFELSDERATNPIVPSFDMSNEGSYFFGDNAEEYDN

UCCAAACUCCAAACUCCAAACUCCAAAC [(UCCAAAC)4 RNA]
Kd [1]: 8.27 nM
Kd [2]: 10.4 nM

Source: PMC4768256, “Using mutagenesis to explore conserved residues in the RNA-binding groove of influenza A virus nucleoprotein for antiviral drug development” (Scientific Reports, 2016)
